According to PMC5811034, “Xylem specific activation of 5’ upstream regulatory region of two NAC transcription factors (MusaVND6 and MusaVND7) in banana is regulated by SNBE-like sites”:

T1: VND3 (MusaVND3) (Musa (banana), cultivar  for …, UniProt A0A0G2UF56 1-336)
T1 sequence: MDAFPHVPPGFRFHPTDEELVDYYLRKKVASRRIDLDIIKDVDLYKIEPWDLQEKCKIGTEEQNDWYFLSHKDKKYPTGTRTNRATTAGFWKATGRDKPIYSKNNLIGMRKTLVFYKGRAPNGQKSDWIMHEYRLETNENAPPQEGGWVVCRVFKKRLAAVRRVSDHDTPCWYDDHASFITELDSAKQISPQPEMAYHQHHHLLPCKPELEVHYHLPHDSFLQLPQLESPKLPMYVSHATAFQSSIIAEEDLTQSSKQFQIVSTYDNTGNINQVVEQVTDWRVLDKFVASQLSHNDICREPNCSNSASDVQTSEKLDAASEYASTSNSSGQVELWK

T2: VND1 (MusaVND1) (Musa (banana), cultivar  for …, UniProt A0A0U3BXB0 1-329)
T2 sequence: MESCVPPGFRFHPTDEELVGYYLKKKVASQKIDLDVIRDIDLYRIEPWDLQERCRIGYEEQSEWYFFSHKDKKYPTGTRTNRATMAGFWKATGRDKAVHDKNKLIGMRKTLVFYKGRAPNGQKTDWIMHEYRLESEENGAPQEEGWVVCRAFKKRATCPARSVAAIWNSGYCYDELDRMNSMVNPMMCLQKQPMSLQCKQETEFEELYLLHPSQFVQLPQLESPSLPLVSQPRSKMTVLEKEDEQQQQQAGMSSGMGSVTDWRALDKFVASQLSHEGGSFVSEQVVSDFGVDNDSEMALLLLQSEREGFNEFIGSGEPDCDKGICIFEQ

T3: VND2 (MusaVND2) (Musa (banana), cultivar  for …, UniProt A0A0G2UKP9 1-329)
T3 sequence: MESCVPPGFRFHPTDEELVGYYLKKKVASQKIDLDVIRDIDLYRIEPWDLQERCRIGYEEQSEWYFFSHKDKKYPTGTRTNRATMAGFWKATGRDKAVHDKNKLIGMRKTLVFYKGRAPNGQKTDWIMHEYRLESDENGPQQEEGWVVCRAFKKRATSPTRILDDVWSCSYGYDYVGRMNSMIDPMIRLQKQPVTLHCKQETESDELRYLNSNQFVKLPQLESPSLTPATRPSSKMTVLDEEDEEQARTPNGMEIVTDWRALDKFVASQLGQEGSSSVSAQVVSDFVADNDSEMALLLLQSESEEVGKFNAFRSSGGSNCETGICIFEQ


Experiments:
Assay in all cases: EMSA; 10 mM Tris pH 8, 5 mM MgCl2, 10 mM KCl, 20 min (temperature not stated); 1.5% agarose gel
Conditions in all cases: protein: recombinant, chain copies: 2
VND3 (MusaVND3) = target: T1, VND3 (MusaVND3)
VND1 (MusaVND1) = target: T2, VND1 (MusaVND1)
VND2 (MusaVND2) = target: T3, VND2 (MusaVND2)

Row | Binder | binding result (VND3 (MusaVND3)) | binding result (VND1 (MusaVND1)) | binding result (VND2 (MusaVND2)) | further results
1 | mSNBE PMusaVND6 (dsDNA) DNA 1: CCTTCGTAAAAGGGCTCTTTAGGTTGG DNA 2: CCAACCTAAAGAGCCCTTTTACGAAGG | no binding | no binding | no binding | 
2 | mSNBE PMusaVND7 (dsDNA) DNA 1: CCTTCGGAAAGCACTCATTTAGGTTGG DNA 2: CCAACCTAAATGAGTGCTTTCCGAAGG | no binding | no binding | no binding | 
3 | SNBE-like site PMusaVND7 (-186 to -167), 38 bp (dsDNA) DNA 1: AATTCGATAGCCTTTGGCGTGCACTCAAAGAAATTGGT DNA 2: ACCAATTTCTTTGAGTGCACGCCAAAGGCTATCGAATT |  |  |  | binding result (VND3 (MusaVND3); TGGCGTGCACTCAAAGAAA mutant): binds; binding result (VND1 (MusaVND1); TGGCGTGCACTCAAAGAAA mutant): binds; binding result (VND2 (MusaVND2); TGGCGTGCACTCAAAGAAA mutant): binds
4 | SNBE-like site PMusaVND6 (-220 to -201), 38 bp (dsDNA) DNA 1: AATTCGATAGCCTTAGTTGTAGGGCTCAAGATTTTGGT DNA 2: ACCAAAATCTTGAGCCCTACAACTAAGGCTATCGAATT |  |  |  | binding result (VND3 (MusaVND3); AGTTGTAGGGCTCAAGATT mutant): binds; binding result (VND1 (MusaVND1); AGTTGTAGGGCTCAAGATT mutant): binds; binding result (VND2 (MusaVND2); AGTTGTAGGGCTCAAGATT mutant): binds
